The record followed here is article PMC7876548.

This experiment concerns the target unmethylated D2 peptide (amino acids 208-243 of the third intracellular loop of the human D2 receptor) (human) (UniProt P14416). Description: fluorescence polarisation; anisotropy; fluorescently labelled D2 peptide at 0.025 µM final, Par-4 or CaM added from 10x stocks of 0-20 µM; 200 mM NaCl, 200 µM CaCl2, 50 mM Tris pH 7.5; room temperature, ten minutes; average of four trials.

Sequence of unmethylated D2 peptide (amino acids 208-243 of the third intracellular loop of the human D2 receptor) (human) (P14416 208-243): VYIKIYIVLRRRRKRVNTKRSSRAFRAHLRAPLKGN

“human Par-4 (prostate apoptosis response 4 protein) (from UniProt Q96IZ0 1-340) (natural protein)”: the Kd (usually the constant that tells how readily two partners part at equilibrium) worked out at 21.6 nM.
